{"source": "patent US20240350597A1", "about": "“PROTEASE INHIBITORS” (University College Dublin, priority 2023, published 2024)", "target": "Cathepsin L (UniProt P07711)", "experiment": "cell-based or functional assay"}
{"substance": "Wild Type SerpinB3 (from UniProt P29508 1-390)", "values": [{"measurement": "CatL inhibition (residual activity on Z-FR-AMC after 2 min incubation with serpin, 1:5 protease:serpin)", "value": 95, "unit": "%"}]}
